From paper PMC5784169, “Repression of Akt3 gene transcription by the tumor suppressor RIZ1” come the findings set out here.

Data set [1] concerns the target T1, GST-RIZ1-Zf1-3 (UniProt Q13029 360-506).
T1 sequence: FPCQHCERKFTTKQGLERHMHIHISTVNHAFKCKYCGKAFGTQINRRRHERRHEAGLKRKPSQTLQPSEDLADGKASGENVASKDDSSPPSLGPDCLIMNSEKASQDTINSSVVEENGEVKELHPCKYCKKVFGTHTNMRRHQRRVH
Nature of the data set: EMSA; abolished by 30-fold excess unlabeled probe; LightShift Chemiluminescent EMSA kit, native PAGE; buffer, salt, pH and temperature not stated. As to conditions: protein: recombinant; tags: N-terminal GST (pGEX-KG); label: 3' biotin; blunt.

Data set [2] has as its target T2, GST-RIZ1-Zf8 (UniProt Q13029 1455-1478).
T2 chain: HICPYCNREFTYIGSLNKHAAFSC
The description is as above. As to conditions: protein: recombinant; tags: N-terminal GST (pGEX-KG); label: 3' biotin; blunt.

B1: mouse Akt3 promoter CpG146 probe (dsDNA)
DNA 1: GGGGAGGGGCCGTCTGCGCATGTGGCGGGAGTGCGGGCGA
DNA 2: TCGCCCGCACTCCCGCCACATGCGCAGACGGCCCCTCCCC
Take B1: the binding result in data set [1] and in data set [2] was “binds” in each case.
